By Kd is commonly meant a measure of binding affinity in units of concentration. In general, EC50 refers to the concentration that produces a half-maximal response.

Data on 2 molecules can be found in patent publication US20240317885A1 (published 2024).

For one assay, the target named is v127. Description: Biacore. For orientation: SPR reads the build-up and loss of mass on a sensor chip optically.
Another assay has as its target v144. Description: Biacore.
The target of assay [1] is T1, Tax interacting protein-1 (TIP1), recombinant / purified protein (UniProt O14907 1-124).
T1 chain: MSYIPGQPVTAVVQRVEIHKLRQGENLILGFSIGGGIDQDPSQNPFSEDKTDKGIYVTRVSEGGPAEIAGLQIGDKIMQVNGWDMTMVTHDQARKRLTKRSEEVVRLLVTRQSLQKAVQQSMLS
Description: Biacore.

For assay [2], the target named is T1, Tax interacting protein-1 (TIP1), …. Description: Biacore.
The target is the same in assay [3]. Description: ELISA. For orientation: An ELISA detects its analyte on a solid surface through an enzyme-linked reagent.
For assay [4] the target is unchanged. Description: ELISA.

B1: TIP1 (other)
chain: T1 chain
As to B1, the Kd came out at 0.13 nM with v127 and 0.241 nM with v144.

B2: human IgG1 v111 (antibody, V domains shown)
VH: QMQLVQSGAEVKKPGESLKISCKGSGYSFTSNWIGWVRQMPGKGLEWMGIIYPGDSDTRYSPSFQGQVTISADKSISTAYLQWSSLKASDTAMYYCARQQGHDAFDIWGQGTTVTVSS
VL: SYELTQPPSVSVSPGQTARITCSGDALPKRYAYWYRQKPGQAPVLVIQKDTERPSGIPERFSGSISGTTVTLTISGVQAEDEADYYCQSTDSSASYAVFGGGTKLTVL
With B2, the dissociation constant (Kd) in assay [1] worked out at 0.107 nM; in assay [2], 0.107 nM; in assay [4] it was 0.124 nM. Further, in assay [3], the half-maximal effective concentration (EC50) is 0.164 nM.
